Data published in patent publication US20210254072, “TNF-TARGETING APTAMERS AND USES THEREOF FOR TREATMENT OR DIAGNOSING TNF-RELATED INFLAMMATORY DISEASES” (Academia Sinica, published 2021).

Legend:
[1] = target: BSA (bovine serum albumin) (UniProt P02769 P02769:25-607); assay: filter; BSA 140 nM used as reference (1 fold)
Method: (§1) Human TNF-α proteins (0, 8.75, 17.5, 35, 70, 140 nM, R&D Systems) were incubated with aptTNF-α (50 nM) at 37° C. for 1 h. In addition, mouse TNF-α proteins (140 nM) or BSA (140 nM) were incubated with aptTNF-α (50 nM) or aptTNF-α-PEG (50 nM) as well. The protein-bound aptamers were then collected by nitrocellulose filter and eluted by heating. The amount of the eluted aptamers was quantified by quantitative PCR (LightCycler 480 system, Roche Applied Science, Mannheim, Germany) The dissociated constant (Kd) was calculated by GraphPad Prism 5 (GraphPad Software, San Diego, Calif.), using the equation Y=Amax×X/(Kd+X). The relative amounts of protein-binding aptamers (human TNF-α proteins and mouse TNF-α proteins) were represented as fold changes, using BSA as the reference (1 fold).

[2] = target: TNF-alpha (Mus musculus, UniProt P06804 P06804:80-235); assay: filter; 140 nM protein, 50 nM aptamer; fold over BSA, value only in figure; settings: chain copies: 3 (inferred)
Method: as §1

Chain of TNF-alpha (P06804 80-235, one chain of several): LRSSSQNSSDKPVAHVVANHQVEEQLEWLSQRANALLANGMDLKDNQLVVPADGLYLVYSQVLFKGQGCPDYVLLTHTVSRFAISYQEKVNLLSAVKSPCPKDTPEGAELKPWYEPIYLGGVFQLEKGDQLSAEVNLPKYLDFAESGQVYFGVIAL
Chain of BSA (bovine serum albumin) (P02769 25-607, one chain of several): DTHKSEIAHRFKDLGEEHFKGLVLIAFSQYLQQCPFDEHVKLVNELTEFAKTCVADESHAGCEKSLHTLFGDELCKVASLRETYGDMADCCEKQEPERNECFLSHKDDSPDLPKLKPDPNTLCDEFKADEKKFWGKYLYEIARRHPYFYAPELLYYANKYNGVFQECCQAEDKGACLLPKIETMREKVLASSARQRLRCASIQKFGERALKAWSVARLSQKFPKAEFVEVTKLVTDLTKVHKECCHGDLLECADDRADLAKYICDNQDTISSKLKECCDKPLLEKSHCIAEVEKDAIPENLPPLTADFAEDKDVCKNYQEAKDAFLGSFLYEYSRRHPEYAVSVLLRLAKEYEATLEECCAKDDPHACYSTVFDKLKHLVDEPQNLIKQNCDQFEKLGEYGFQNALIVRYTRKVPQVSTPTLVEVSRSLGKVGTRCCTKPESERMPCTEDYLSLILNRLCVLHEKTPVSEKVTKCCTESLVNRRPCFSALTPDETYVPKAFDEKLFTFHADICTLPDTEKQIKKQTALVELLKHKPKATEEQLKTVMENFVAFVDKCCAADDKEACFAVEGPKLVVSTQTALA

Binder	binding signal [1] [fold]	binding result [2]
GCGCCACTACAGGGGAGCTGCCATTCGAATAGGTGGGCCGC (ssDNA) [aptTNF-alpha]	1	binds
GCGCCACTACAGGGGAGCTGCCATTCGAATAGGTGGGCCGC (ssDNA, two copies of amine-labeled SEQ ID NO: 1 linked by 20 kDa PEG (NHS-PEG-NHS)) [aptTNF-alpha-PEG (dimer)]	1	binds
